Laboratory results: the supplement of paper PMC9170038

Test system: MS2 coat protein
Assay: apparent KD of MS2 coat protein; designed switch direction (-1 OFF switch, 1 ON switch): -1; higher = weaker reporter binding
Method in brief: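 The reported apparent KD is a per-design median over clusters, from curve fits of normalised cluster fluorescence. Protein titrations used SNAP-549-labelled MS2 coat protein, doubled from 0.7 or 1.5 nM to 3 µM, in Tris-HCl pH 7.5 buffer with KCl, MgCl2, BSA, DTT, tRNA and Tween-20, with no input, 200 uM small-molecule ligand, or an oligonucleotide input. The RNA switches were transcribed on Illumina chips by stalled E. coli RNA polymerase.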

[1] = Eterna round: R95, input ligand: microRNA oligo, concentration not stated
[2] = Eterna round: R95, input ligand: FMN 200 uM
[3] = Eterna round: R95, input ligand: none
[4] = input ligand: microRNA oligo, concentration not stated

Sequence | apparent KD of MS2 coat protein (input ligand: FMN 200 uM) | apparent KD of MS2 coat protein (input ligand: none) | other results
AUUUAACAUGAGGAUCACCCAUGUGAGGAUAUGUCCAUAUUCGGCAAAUCGGAUAUGGACAGAAGGCACACCGG [JR_Exclusion1_Sub008] (puzzle: Exclusion 1) | – | – | apparent KD of MS2 coat protein [1]: 139 nM
AUUUAGCAAGCCAGAUCCUACAUGAGGAUCACCCAUGUAGUUCGUCUUAUUUGAAGACAACACAAAAGUGUUGUCUU [Omei Mir OFFv1 B6] (Eterna round: R97, puzzle: Sensor, turn-off variant 1) | 15.7 nM | 14 nM | –
AUUUAGUGAGGAUAUGUGGCUUCGAUCGUGAGAUCGAGGCUACAGAAGGCACAUGAGGAUCACCCAUGUUCCUA [salish99_ex4_r4_115] (Eterna round: R97, puzzle: Exclusion 4) | 86.3 nM | 21.4 nM | –
CAAAAGCUAGGAUAUCGCAAACAAGACAUGAGGAUCACCCAUGUGUCCAUGGCCGACCUCCGAGAAGGAGCAAUAU [Dieded] (puzzle: Exclusion 5) | – | – | apparent KD of MS2 coat protein [2]: 32.5 nM; apparent KD of MS2 coat protein [1]: 27.9 nM; apparent KD of MS2 coat protein [3]: 30.5 nM
CAAAAGGGAGGAUAUACUUGAGGAUCACCCAAGUAAUCGGGUCAAAGAUACCAAGCAGGUAGAAGGCCCAAAUA [Teedleveer] (Eterna round: R97, puzzle: Exclusion 3) | 91.5 nM | 84.7 nM | –
CAAAAUGCUCGAGGAUAUCCGAGGAGCAGAAAAGGAGAAGGCGAGGAUAAAGAACAUGAGGAUCACCCAUGUGAACCUCGUAAU [Lereores] (Eterna round: R96, puzzle: Exclusion NG 1) | 16.9 nM | 16.1 nM | apparent KD of MS2 coat protein [4]: 14.6 nM
CAAACAAAGUCAGGAUAUGUCAAAUUUGUUACGACAGAAGGGACGGGACCGACACUCACAGACAUGAGGAUCACCCAUGUAAAA [Areris] (Eterna round: R96, puzzle: Exclusion NG 1) | 37.8 nM | 33.5 nM | apparent KD of MS2 coat protein [4]: 19 nM
CAAACAAGCGAAAGAUCCCACAUGAGGAUCACCCAUGUGCUCGUCUUAUAAGGUACUGUGACGAUAGUCACGGUACC [Mat - Sensor, turn-off var - Eli Mod - D79] (Eterna round: R97, puzzle: Sensor, turn-off variant 1) | 36.8 nM | 45.2 nM | –
CAACAUGGACCUCGCUCCGACAUGAGGAUCACCCAUGUUGGAACCUUACUGGCGUCGAGUGUUGCUCGUCUUACCGU [Eternabot (Original) Solution 10] (Eterna round: R97, puzzle: Sensor, turn-off variant 1) | 189 nM | 268 nM | –
CAACUGUCAGGAUAUCGUGCAUACAACGAAAGUUCUAUGUGCGAGAAGGGACAUGAGGAUCACCCAUGUAAACG [Omei Ex4 A27] (Eterna round: R97, puzzle: Exclusion 4) | 199 nM | 60.9 nM | –
CAAGUCCUUUACUACAAGCACAUGAGGAUCACCCAUGUCAAAUUUGUGCCUCGGUACGGAAGCUCGUCUUUUCGUAG [Eternabot (L2) Solution 1] (Eterna round: R97, puzzle: Sensor, turn-off variant 1) | 30 nM | 35.6 nM | –
CAAUAACAAGCGAGAUCCUACAUGAGGAUCACCCAUGUGCUCGUCUUAAAAGGUACUGUGACGAUAGUCACGGUACC [Mat - Sensor, turn-off var - Eli Mod - D98] (Eterna round: R97, puzzle: Sensor, turn-off variant 1) | 15.3 nM | 17.9 nM | –
CAAUACAAGCGAAGAUCCUACAUGAGGAUCACCCAUGUGCUCGUCUUAAAAGGUACUGAGACGAAAGUCUCGGUACC [Mat - Sensor, turn-off var - Eli Mod - D99] (Eterna round: R97, puzzle: Sensor, turn-off variant 1) | 280 nM | 367 nM | –
CAAUUCAGAGGAUAUGCGCAUAGAUAAGACUUUUUUUCUUAACAUGAGGAUCACCCAUGUAGAAGGCUGUAAAC [Ex2 #62] (Eterna round: R97, puzzle: Exclusion 2) | 16.5 nM | 16.8 nM | –
CACAAAACUGUCAGGAUAUCAGAUGCCGACCCAUAUGAGAAGGGACAUGAGGAUCACCCAUGUACUGGUUCUCA [BmEX4 B.6] (Eterna round: R97, puzzle: Brourd's mod of Exclusion 4) | 13.9 nM | 19.8 nM | –
CACAAGCUUGGGCUCGCUGACAUGAGGAUCACCCAUGUCGGAUCAGACACCAAACGUCUCGAUCACGACGGAUCCAG [Eternabot (Original) Solution 7] (Eterna round: R97, puzzle: Sensor, turn-off variant 1) | 40 nM | 33.3 nM | –
CACAUGAGACGGAGAUCCAACAUGAGGAUCACCCAUGUCUCAAAAGCUUUUUGCUUGUCUUAUCCUCCUCUCGUGAC [Mat - Sensor, turn-off var - Eli Mod - D61] (Eterna round: R97, puzzle: Sensor, turn-off variant 1) | 47.8 nM | 46.7 nM | –

Sequence | apparent KD of MS2 coat protein (input ligand: FMN 200 uM) | apparent KD of MS2 coat protein (input ligand: none) | other results
CACCGUUACAGAGGAUAUCGUACAUGAGGAUCACCCAUGUAAUAAAUGAGAAUUUCGGAUGUAUGCGAGAAGGCUGGAAUCGGC [Ostracism 37 - Jieux - Exclusion NG 2] (Eterna round: R96, puzzle: Exclusion NG 2) | – | – | apparent KD of MS2 coat protein [4]: 20.7 nM
CACCGUUAGAGAGGAUAUCGUACAUGAGGAUCACCCAUGUAAUAAAUGAGAAUUUCGGAUGUCUGCGAGAAGGCUCGAAUCGGC [Ostracism 32 - Jieux - Exclusion NG 2] (Eterna round: R96, puzzle: Exclusion NG 2) | – | – | apparent KD of MS2 coat protein [4]: 23 nM
CACGUGUCAGGAUAUCCCGCGCGCGCUUCACCGAGAGUGCGGGAGAAGGGACAUGAGGAUCACCCAUGUCCUUC [Eternabot (L1) Solution 93] (Eterna round: R97, puzzle: Exclusion 4) | 12.8 nM | 16.2 nM | –
CACUUACAUGAGGAUCACCCAUGUGAGGAUAUCGUGACCAGACGAGAAGUCUAUGUCACGAGAAGGUACAUGGG [Exclusion 1 (Mod 1.1 solution 97 by Eternabot)] (Eterna round: R97, puzzle: Exclusion 1) | 93.3 nM | 574 nM | –
CAGACACAUGAGGAUCACCCAUGUGAGGAUAUGCGUACGUUGUCCGUAGGCGACGUGCGCAGAAGGCACAAAGG [JL-ex1-3.09 Eli mod] (puzzle: Exclusion 1) | – | – | apparent KD of MS2 coat protein [1]: 52.7 nM
CAGCAGAGAGGAUAUACUUGAGGAUCACCCAAGUGACACCGCCUGGUGCGAACUUGAAGUAGAAGGUUCGGCUA [Entema] (Eterna round: R97, puzzle: Exclusion 3) | 24.7 nM | 19.7 nM | –
CAGCGAUCAGGAUAUACAUGAGGAUCACCCAUGUGUUCCAGCUAGGAAACUAGCAAAUGUAGAAGGGAUCGCUG [jl-ex3-4.00 salish99 mod] (Eterna round: R97, puzzle: Exclusion 3) | 32.2 nM | 346 nM | –
CAGCUGAAAGUGAGGAUAUAGACUGCCUCGGCAGUCUAGAAGGCACAUGAGGAUCACCCAUGUCUCAACAGCUG [BmEx4/1-B2] (Eterna round: R97, puzzle: Brourd's mod of Exclusion 4) | 70.2 nM | 11.3 nM | –
CAGUACAGAGGAUAUACAUGAGGAUCACCCAUGUGUUUCAGGUACGAGAGUACCGAAUGUAGAAGGCUGUACUG [jl-ex3-4.27 salish99 mod] (Eterna round: R97, puzzle: Exclusion 3) | 229 nM | 24.5 nM | –
CAGUACUACAAGCUAAGGGACAUGAGGAUCACCCAUGUUCGUCUUAUUGAUCUAGGUACGCUGACGUACCUAGAUCU [JL-sv1-2.18 Brourd mod] (puzzle: Sensor v3, turn-off variant 1) | – | – | apparent KD of MS2 coat protein [2]: 13.6 nM; apparent KD of MS2 coat protein [1]: 20.8 nM; apparent KD of MS2 coat protein [3]: 13.8 nM
CAGUACUGAGGAUAUACAUGAGGAUCACCCAUGUAUCCUAGCUAGGAAACUAGCAAAUGUAGAAGGCAGUACUG [Ex3: 818] (Eterna round: R96, puzzle: Exclusion 3) | 747 nM | 61.2 nM | apparent KD of MS2 coat protein [4]: 53.8 nM
CAGUACUGAGGAUAUACAUGAGGAUCACCCAUGUGAACCAGCUAGGAAACUAGCAAAAGUAGAAGGCAGUACUG [828 mod 2 m7] (Eterna round: R97, puzzle: Exclusion 3) | 2260 nM | 92.5 nM | –
CAGUACUGAGGAUAUACAUGAGGAUCACCCAUGUGAGAAAUACUAAUGAGGUCGAUUAGUAGAAGGCAGUACUG [Mat - Exclusion 3 - Eli Mod - D32] (Eterna round: R97, puzzle: Exclusion 3) | 255 nM | 19.7 nM | –
CAGUACUGAGGAUAUACAUGAGGAUCACCCAUGUGCACCAGCUAGGAUACUAGCAAAAGUAGAAGGCAGUACUG [Mat - Exclusion 3 - Eli Mod - D19] (Eterna round: R97, puzzle: Exclusion 3) | 118 nM | 16.1 nM | –
CAGUACUGAGGAUAUACAUGAGGAUCACCCAUGUGCCUUAGCUAGGAUACUAGCAUUAGUAGAAGGCAGUACUG [Fiskers Ex 3 828 mod 14] (puzzle: Exclusion 3) | – | – | apparent KD of MS2 coat protein [1]: 14.2 nM
CAGUACUGAGGAUAUACAUGAGGAUCACCCAUGUGUCCCUGCUAGGAAACUAGCAAUAGUAGAAGGCAGUACUG [Fiskers Ex 3 828 mod 4] (puzzle: Exclusion 3) | – | – | apparent KD of MS2 coat protein [1]: 17 nM
CAGUACUGAGGAUAUACAUGAGGAUCACCCAUGUGUGCCAGCUAGGAAACUAGCAAAAGUAGAAGGCAGUACUG [salish99_ex3_r3_082] (puzzle: Exclusion 3) | – | – | apparent KD of MS2 coat protein [2]: 102 nM; apparent KD of MS2 coat protein [1]: 12 nM; apparent KD of MS2 coat protein [3]: 11.9 nM
